{"source": "paper PMC6224480", "about": "“Insights into Kinesin-1 Activation from the Crystal Structure of KLC2 Bound to JIP3” (Structure(London, England:1993), 2018)", "conditions_in_all_cases": "both partners purified", "key": {"KLC2^TPR-myc (wild type) [1]": {"molecular_target": "T1, KLC2^TPR-myc (wild type) (murine, UniProt O88448 190-479)", "T1 construct": "kinesin light chain 2 (KLC2), murine, TPR domain, residues 191-480; also called KLC2^TPR-myc protein; source: E. coli BL21(DE3) Rosetta, purified (His-trap, ULP1 cleavage, SEC); not shown: His6-SUMO, N-terminal, cleaved", "T1 sequence (O88448 190-479)": "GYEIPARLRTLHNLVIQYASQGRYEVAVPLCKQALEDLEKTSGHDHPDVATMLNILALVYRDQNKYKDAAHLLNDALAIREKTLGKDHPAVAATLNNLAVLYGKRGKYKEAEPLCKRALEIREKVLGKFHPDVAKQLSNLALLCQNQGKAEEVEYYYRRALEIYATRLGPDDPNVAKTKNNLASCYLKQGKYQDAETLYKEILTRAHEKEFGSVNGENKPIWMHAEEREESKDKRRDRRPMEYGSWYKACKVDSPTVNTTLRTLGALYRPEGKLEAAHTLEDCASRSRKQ", "assay": "fluorescence polarisation; competition: FITC-LFP peptide (300 nM) and KLC2^TPR-myc fixed at 21 μM, 2-fold serial dilutions of unlabelled CSTN-WD1 peptide or Trp-JIP3^LZ; 0.1 M NaCl, 25 mM HEPES, 5 mM MgCl2, 1 mM TCEP, pH 7.5; competitive inhibition model"}, "KLC2^TPR-myc (wild type) [2]": {"molecular_target": "T1, KLC2^TPR-myc (wild type)", "assay": "ITC; wild-type or mutant KLC2^TPR-myc (44-50 μM) in the cell; Trp-JIP3^LZ (dimer 297-330 μM) or FITC-CSTN-WD2 peptide (380 μM) as titrant; 0.1 M NaCl, 25 mM HEPES, 1 mM TCEP, pH 7.5"}, "[3]": {"molecular_target": "T2, KLC2^TPR-myc Thr^200Asp mutant (murine, UniProt O88448 190-479, Thr^200Asp)", "T2 construct": "kinesin light chain 2 (KLC2), murine, TPR domain, residues 191-480; source: E. coli BL21(DE3) Rosetta, purified (His-trap, ULP1 cleavage, SEC); not shown: His6-SUMO, N-terminal, cleaved", "T2 sequence (O88448 other isoform, or with tags, fused parts or gaps Thr^200Asp | Thr^200Asp | mutant)": "as the sequence (O88448 190-479) above, with T10D counted along it", "assay": "ITC; wild-type or mutant KLC2^TPR-myc (44-50 μM) in the cell; Trp-JIP3^LZ (dimer 297-330 μM) or FITC-CSTN-WD2 peptide (380 μM) as titrant; 0.1 M NaCl, 25 mM HEPES, 1 mM TCEP, pH 7.5"}, "[4]": {"molecular_target": "T3, KLC2^TPR-myc Tyr^208Ala mutant (murine, UniProt O88448 190-479, Tyr^208Ala)", "T3 construct": "kinesin light chain 2 (KLC2), murine, TPR domain, residues 191-480; source: E. coli BL21(DE3) Rosetta, purified (His-trap, ULP1 cleavage, SEC); not shown: His6-SUMO, N-terminal, cleaved", "T3 sequence (O88448 other isoform, or with tags, fused parts or gaps Tyr^208Ala | Tyr^208Ala | mutant)": "as the sequence (O88448 190-479) above, with Y18A counted along it", "assay": "ITC; wild-type or mutant KLC2^TPR-myc (44-50 μM) in the cell; Trp-JIP3^LZ (dimer 297-330 μM) or FITC-CSTN-WD2 peptide (380 μM) as titrant; 0.1 M NaCl, 25 mM HEPES, 1 mM TCEP, pH 7.5"}, "[5]": {"molecular_target": "T4, KLC2^TPR-myc Gln^223Lys mutant (murine, UniProt O88448 190-479, Gln^223Lys)", "T4 construct": "kinesin light chain 2 (KLC2), murine, TPR domain, residues 191-480; source: E. coli BL21(DE3) Rosetta, purified (His-trap, ULP1 cleavage, SEC); not shown: His6-SUMO, N-terminal, cleaved", "T4 sequence (O88448 other isoform, or with tags, fused parts or gaps Gln^223Lys | Gln^223Lys | mutant)": "as the sequence (O88448 190-479) above, with Q33K counted along it", "assay": "ITC; wild-type or mutant KLC2^TPR-myc (44-50 μM) in the cell; Trp-JIP3^LZ (dimer 297-330 μM) or FITC-CSTN-WD2 peptide (380 μM) as titrant; 0.1 M NaCl, 25 mM HEPES, 1 mM TCEP, pH 7.5"}, "[6]": {"molecular_target": "KLC2^TPR-myc third TPR1 mutant, printed as L220Y in Table S2 (mouse, UniProt O88448 191-480)", "sequence (O88448 other isoform, or with tags, fused parts or gaps L220Y)": "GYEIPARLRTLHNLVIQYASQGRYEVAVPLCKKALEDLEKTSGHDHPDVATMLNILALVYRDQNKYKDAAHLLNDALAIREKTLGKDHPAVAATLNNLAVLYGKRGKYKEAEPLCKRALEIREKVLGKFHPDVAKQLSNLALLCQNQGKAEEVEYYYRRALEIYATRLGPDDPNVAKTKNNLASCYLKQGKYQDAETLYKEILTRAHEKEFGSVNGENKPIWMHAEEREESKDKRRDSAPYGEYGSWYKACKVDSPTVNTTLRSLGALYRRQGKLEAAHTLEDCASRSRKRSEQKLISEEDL", "assay": "ITC; FITC-CSTN-WD2 peptide as titrant (380 uM) into wild-type or mutant KLC2^TPR-myc (44-50 uM) in the cell; 25 C; 0.1 M NaCl, 25 mM HEPES, 1 mM TCEP, pH 7.5; 2-3 experiments globally fitted with the model A + B -> AB; apparent stoichiometry Napp"}, "KLC2^TPR-myc (wild type) [7]": {"molecular_target": "T1, KLC2^TPR-myc (wild type)", "assay": "fluorescence polarisation; FITC-LFP peptide (300 nM) with 2-fold dilutions of KLC2^TPR-myc; 0.1 M NaCl, 25 mM HEPES, 5 mM MgCl2, 1 mM TCEP, pH 7.5; 1 hour, room temperature; fluorescence anisotropy"}}, "note": "*: point of attachment. FITC = O=C1OC2(c3ccc(O)cc3Oc3cc(O)ccc32)c2ccc(NC(=S)*)cc21"}
{"binder": "Ac-GKENEMDWDDSALTITVN-OH (tryptophan-acidic motif WD1 of calsyntenin-1; also called calsyntenin-1 peptide; tryptophan-acidic peptide; source: synthetic peptide (Peptide Synthesis Laboratory, Francis Crick Institute, UK))", "note": "[N-terminally acetylated CSTN-WD1 peptide (Ac-GKENEMDWDDSALTITVN-COOH)]", "values": [{"measurement": "Ki", "setting": "KLC2^TPR-myc (wild type) [1]", "value": 11.3, "unit": "µM"}]}
{"binder": "{FITC}-TRQLEWDDSTL-OH (tryptophan-acidic motif WD2 of calsyntenin-1; also called FITC-CSTN-WD2 peptide; tryptophan-acidic cargo peptide; source: synthetic peptide, bought: Biomatik)", "values": [{"measurement": "stoichiometry N", "setting": "KLC2^TPR-myc (wild type) [2]", "value": "~0.7"}, {"measurement": "stoichiometry N", "setting": "[3]", "value": "~0.7"}, {"measurement": "stoichiometry N", "setting": "[4]", "value": "~0.7"}, {"measurement": "stoichiometry N", "setting": "[5]", "value": "~0.7"}]}
{"binder": "{FITC}-TRQLEWDDSTL-OH (tryptophan-acidic peptide (WD2 motif) derived from calsyntenin-1; also called FITC-CSTN-WD2 peptide; source: synthetic peptide; bought: Biomatik)", "values": [{"measurement": "Ka", "setting": "[6]", "value": 739000, "unit": "M⁻¹"}, {"measurement": "stoichiometry N", "setting": "[6]", "value": 0.71}]}
{"binder": "{FITC}-DSLDDLFPNEDEQS-OH (LFP motif (KLC2 residues 167-169) of the acidic linker of kinesin light chain 2; also called FITC-LFP peptide; FITC-labelled LFP-motif peptide; source: synthetic peptide, bought: Biomatik)", "note": "[FITC-labeled KLC2 LFP motif peptide (FITC-DSLDDLFPNEDEQS-COOH)]", "values": [{"measurement": "Kd", "setting": "KLC2^TPR-myc (wild type) [7]", "value": 37, "unit": "µM"}]}
